We go through two molecules from PMC3597821.

What is called Kd is the constant that tells how readily two partners part at equilibrium. A lower Kd goes with tighter binding.

Series [1] concerns the target T1, DmAgo2 (Drosophila melanogaster, UniProt Q9VUQ5 403-1214).
T1 sequence: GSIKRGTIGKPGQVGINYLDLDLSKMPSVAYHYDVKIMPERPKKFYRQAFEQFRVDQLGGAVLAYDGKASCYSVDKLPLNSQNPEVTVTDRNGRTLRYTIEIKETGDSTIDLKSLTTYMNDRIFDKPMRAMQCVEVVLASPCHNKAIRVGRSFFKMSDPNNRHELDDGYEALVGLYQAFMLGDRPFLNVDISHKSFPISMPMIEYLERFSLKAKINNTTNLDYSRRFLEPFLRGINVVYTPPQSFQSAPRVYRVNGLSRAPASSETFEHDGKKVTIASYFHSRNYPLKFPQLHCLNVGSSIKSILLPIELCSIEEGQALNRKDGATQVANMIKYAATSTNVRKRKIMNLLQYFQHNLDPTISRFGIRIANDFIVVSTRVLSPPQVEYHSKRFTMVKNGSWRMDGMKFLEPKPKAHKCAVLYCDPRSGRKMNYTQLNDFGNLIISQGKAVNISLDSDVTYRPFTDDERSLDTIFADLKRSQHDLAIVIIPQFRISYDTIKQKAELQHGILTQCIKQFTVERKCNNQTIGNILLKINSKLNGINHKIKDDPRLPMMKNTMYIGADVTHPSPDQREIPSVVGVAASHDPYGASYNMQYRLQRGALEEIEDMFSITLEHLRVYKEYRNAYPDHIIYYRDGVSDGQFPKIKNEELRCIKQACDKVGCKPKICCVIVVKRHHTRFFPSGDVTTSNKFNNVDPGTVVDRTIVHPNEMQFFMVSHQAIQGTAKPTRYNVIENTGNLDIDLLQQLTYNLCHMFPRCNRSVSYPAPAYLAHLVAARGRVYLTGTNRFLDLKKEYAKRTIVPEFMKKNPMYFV
Nature of the series: competitive double filter binding.

Series [2] concerns the target DmAgo1 WT (Drosophila melanogaster, UniProt A1Z9J5 1-950). The series is described as follows: filter binding.

The molecule UGAGAUCAUUUUGAAAGCUGAUU (ssRNA, 5' phosphate on labeled RNA (PNK)) [bantam miRNA 23 nt] registered a Kd in series [1] of 0.0107 ± 0.001 µM.

B1: bantam guide / 43-nt target (1-12 match) (dsRNA)
RNA 1: UGAGAUCAUUUUGAAAGCUGAUU
RNA 2: AGUUCUUAAGUUAGUCGAAACAAAAUGAUCUCACAUAGGCUUA
modifications: target printed as DNA letters, assayed as RNA
In the case of B1, the binding result in series [2] is on record as “binds”.
